From patent US20210253718A1, “FRIZZLED5 PROTEIN-BINDING AGENTS” (Modmab Therapeutics Corporation, priority 2016, published 2021)

T1: FZD5 CRD (Homo sapiens, UniProt Q13467)
T1 construct: K29-T156; GPI anchor signal (C); expressed in transfected cells; host or cells: CHO cells, lentiviral pLenti-puro
T1 sequence (Q13467 29-156): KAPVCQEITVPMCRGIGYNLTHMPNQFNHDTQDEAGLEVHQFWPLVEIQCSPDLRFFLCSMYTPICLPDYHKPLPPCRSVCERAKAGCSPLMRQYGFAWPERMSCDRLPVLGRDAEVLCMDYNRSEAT

T2: FZD6 CRD (Homo sapiens, UniProt O60353)
T2 construct: S20-P146; GPI anchor signal (C); expressed in transfected cells; host or cells: CHO cells, lentiviral pLenti-puro
T2 sequence (O60353 20-146): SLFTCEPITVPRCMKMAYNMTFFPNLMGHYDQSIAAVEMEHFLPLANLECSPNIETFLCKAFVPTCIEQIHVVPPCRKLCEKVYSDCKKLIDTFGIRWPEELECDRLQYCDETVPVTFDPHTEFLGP

T3: FZD3 CRD (Homo sapiens, UniProt Q9NPG1)
T3 construct: CRD of FZD1, FZD2, FZD3, FZD4, FZD5, FZD6, FZD7, FZD8, FZD9 or FZD10; GPI anchor signal (C); expressed in transfected cells; host or cells: CHO cells, lentiviral pLenti-puro
T3 sequence (Q9NPG1 23-136 limits assumed): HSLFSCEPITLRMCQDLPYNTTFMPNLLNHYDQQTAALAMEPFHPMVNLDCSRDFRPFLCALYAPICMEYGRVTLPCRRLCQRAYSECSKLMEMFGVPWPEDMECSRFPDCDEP

T4: FZD4 CRD (Homo sapiens, UniProt Q9ULV1)
T4 construct: E42-V167; GPI anchor signal (C); expressed in transfected cells; host or cells: CHO cells, lentiviral pLenti-puro
T4 sequence (Q9ULV1 42-167): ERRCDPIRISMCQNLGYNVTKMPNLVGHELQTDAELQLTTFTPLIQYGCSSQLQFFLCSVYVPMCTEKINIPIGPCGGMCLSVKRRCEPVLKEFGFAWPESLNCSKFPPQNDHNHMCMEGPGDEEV

B1: Fab-2913: anti-FZD5 Fab with antibody variable region Fv-2913; CDR SEQ ID NOs: 35, 36, 52, 91, 128, 165 (antibody, V domains shown)
VH: EVQLVESGGGLVQPGGSLRLSCAASGFNISYSSIHWVRQAPGKGLEWVASIYPYSSSTSYADSVKGRFTISADTSKNTAYLQMNSLRAEDTAVYYCARYGYYGLDYWGQGTLVTVSS
VL: DIQMTQSPSSLSASVGDRVTITCRASQSVSSAVAWYQQKPGKAPKLLIYSASSLYSGVPSRFSGSRSGTDFTLTISSLQPEDFATYYCQQWGVSHYLFTFGQGTKVEIK
B2: Fab-2918: anti-FZD5 Fab with antibody variable region Fv-2918; CDR SEQ ID NOs: 35, 36, 57, 96, 133, 169 (antibody, V domains shown)
VH: EVQLVESGGGLVQPGGSLRLSCAASGFNLSYSSIHWVRQAPGKGLEWVASIYSSYSSTSYADSVKGRFTISADTSKNTAYLQMNSLRAEDTAVYYCARFGYWAIDYWGQGTLVTVSS
VL: DIQMTQSPSSLSASVGDRVTITCRASQSVSSAVAWYQQKPGKAPKLLIYSASSLYSGVPSRFSGSRSGTDFTLTISSLQPEDFATYYCQQAFGASLFTFGQGTKVEIK
B3: Fab-2916: anti-FZD5 Fab with antibody variable region Fv-2916; CDR SEQ ID NOs: 35, 36, 55, 94, 131, 167 (antibody, V domains shown)
VH: EVQLVESGGGLVQPGGSLRLSCAASGFNISYSSIHWVRQAPGKGLEWVASIYPSYSYTYYADSVKGRFTISADTSKNTAYLQMNSLRAEDTAVYYCARYGYYGMDYWGQGTLVTVSS
VL: DIQMTQSPSSLSASVGDRVTITCRASQSVSSAVAWYQQKPGKAPKLLIYSASSLYSGVPSRFSGSRSGTDFTLTISSLQPEDFATYYCQQWYHYPYLITFGQGTKVEIK

How the values were obtained:
[1] = tested on: ASPC-1 cells; experiment: Effect of anti-FZD5 Fabs on proliferation of pancreatic cancer cell lines (percent growth inhibition); format: cell-based, human; conditions: Fab 2 μg/ml
[2] = tested on: RWP1 cells; experiment: as above; format: cell-based, human; conditions: Fab 2 μg/ml
[3] = tested on: PATU8988S cells; experiment: as above; format: cell-based, human; conditions: Fab 10 μg/ml
Description: (§1) The effect of presently disclosed anti-FZD5 Fabs on proliferation of RNF43 loss-of-function mutant pancreatic cancer cell lines HPAFII, PATU8988S and ASPC-1; and on pancreatic cancer cell line RWP1, was tested at […] and 10 μg/ml.

[4] = tested on: ASPC-1 cells; experiment: as above; format: cell-based, human; conditions: Fab 10 μg/ml
Description: as §1

[5] = tested on: HPAFII cells; experiment: as above; format: cell-based, human; conditions: for percent growth inhibition, HPAFII 2 μg/ml: Fab 2 μg/ml; for percent growth inhibition, HPAFII 10 μg/ml: Fab 10 μg/ml
Description: as §1

[6] = tested on: RWP1 cells; experiment: as above; format: cell-based, human; conditions: Fab 10 μg/ml
Description: as §1

[7] = target: T1, FZD5 CRD; experiment: Immunofluorescence of anti-FZD5 Fab binding to CHO cells overexpressing Frizzled CRD; set-up: key: −: no binding; +: very weak binder; ++: weak binder; +++: good binder; ++++: very good binder
Summary of the method: (§2)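 First, ten CHO cell lines were made, each lentivirally expressing a different human Frizzled CRD tagged with myc and tethered by GPI. Next, anti-FZD5 Fabs were added to each line. Finally, binding was assessed by immunofluorescence and flow cytometry.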

[8] = target: T5, FZD1 CRD (Homo sapiens, UniProt Q9UP38); experiment: as above; set-up: key: −: no binding; +: very weak binder; ++: weak binder; +++: good binder; ++++: very good binder
T5 construct: D112-P238; GPI anchor signal (C); expressed in transfected cells; host or cells: CHO cells, lentiviral pLenti-puro
Summary of the method: as §2

[9] = target: T2, FZD6 CRD; experiment: as above; set-up: key: −: no binding; +: very weak binder; ++: weak binder; +++: good binder; ++++: very good binder
Summary of the method: as §2

[10] = target: T3, FZD3 CRD; experiment: as above; set-up: key: −: no binding; +: very weak binder; ++: weak binder; +++: good binder; ++++: very good binder
Summary of the method: as §2

[11] = target: T4, FZD4 CRD; experiment: as above; set-up: key: −: no binding; +: very weak binder; ++: weak binder; +++: good binder; ++++: very good binder
Summary of the method: as §2

Molecule	percent growth inhibition, ASPC-1 2 μg/ml [1] [%]	percent growth inhibition, RWP1 2 μg/ml [2] [%]	percent growth inhibition, PATU8988s 10 μg/ml [3] [%]	percent growth inhibition, ASPC-1 10 μg/ml [4] [%]	percent growth inhibition, HPAFII 2 μg/ml [5] [%]	percent growth inhibition, HPAFII 10 μg/ml [5] [%]	percent growth inhibition, RWP1 10 μg/ml [6] [%]	Immunofluorescence binding, Frizzled CRD overexpressed on CHO cells: FZD5 [7]	Immunofluorescence binding, Frizzled CRD overexpressed on CHO cells: FZD1 [8]	Immunofluorescence binding, Frizzled CRD overexpressed on CHO cells: FZD6 [9]	Immunofluorescence binding, Frizzled CRD overexpressed on CHO cells: FZD3 [10]	Immunofluorescence binding, Frizzled CRD overexpressed on CHO cells: FZD4 [11]
B1	2.25	59.79	−43.04	−7.73	−5.59	−28.52	68.29	++	++	−	−	−
B2	44.67	3.49	−1.92	45.56	37.15	44.60	39.24	++++	−	−	−	−
B3	44.03	1.68	−19.08	42.26	31.28	52.29	30.61	++++	++++	−	−	−
